Assays:
[1] = molecular target: B/Memphis/13/2003 FluPol PA-NE332-333AA (PB2, PA mutant, PB1-luc2); conditions: parent: est. 100; read off a plot
[2] = molecular target: B/Memphis/13/2003 FluPol PA-NENF332-335AAAA (PB2, PA mutant, PB1-luc2); conditions: parent: est. 100; read off a plot
[3] = molecular target: B/Memphis/13/2003 FluPol PA-NY360-361AA (PB2, PA mutant, PB1-luc2); conditions: parent: est. 100; read off a plot
[4] = molecular target: FluPolB (influenza B/Memphis/13/2003 polymerase heterotrimer) (influenza B/Memphis/13/2003) (UniProt Q5V8Z9); experiment: mass photometry

B/Memphis/13/2003 FluPol wild type (PB2, PA, PB1-luc1) for the split luciferase assays (from UniProt Q5V8Z9;Q5V8Y6;Q5V8X3) PA:N332A; PA:E333A
percent of parent [1]: 33 % FluPol-WT

B/Memphis/13/2003 FluPol wild type (PB2, PA, PB1-luc1) for the split luciferase assays (from UniProt Q5V8Z9;Q5V8Y6;Q5V8X3) PA:N332A; PA:E333A; PA:N334A; PA:F335A
percent of parent [2]: 9 % FluPol-WT

B/Memphis/13/2003 FluPol wild type (PB2, PA, PB1-luc1) for the split luciferase assays (from UniProt Q5V8Z9;Q5V8Y6;Q5V8X3) PA:N360A; PA:Y361A
percent of parent [3]: 6 % FluPol-WT

FluPolB (influenza B/Memphis/13/2003 polymerase heterotrimer) (from UniProt Q5V8Z9;Q5V8Y6;Q5V8X3) (complex)
percent dimers [4]: 14%

Source: publication PMC11333492
